Reference: doi:10.1101/361857 (bioRxiv, 2018)
Read-outs that look alike come from different tables or passages of the source. Values belong to the binder of their own block, whether it stands above or below them. Ends that are not written are not given here. * marks the point of attachment. diazirine‑based cleavable photocrosslinker = not defined here; Biotin = O=C1N[C@H]2[C@H](CS[C@H]2CCCCC(=O)*)N1

How the values were obtained:
Test in all cases: cross-linking
[1] = molecular target: T1, JNK1 β-1 isoform lacking 20 amino acids from the C-terminus (JNK1 ΔC20) (human, UniProt P45983-3 1-364)
ERK2 = ERK2 (human, UniProt P28482 1-360)
[2] = molecular target: T1, JNK1 β-1 isoform lacking 20 amino acids …; remark: listed apart in the source

Sequence of ERK2 (P28482 whole entry, canonical isoform): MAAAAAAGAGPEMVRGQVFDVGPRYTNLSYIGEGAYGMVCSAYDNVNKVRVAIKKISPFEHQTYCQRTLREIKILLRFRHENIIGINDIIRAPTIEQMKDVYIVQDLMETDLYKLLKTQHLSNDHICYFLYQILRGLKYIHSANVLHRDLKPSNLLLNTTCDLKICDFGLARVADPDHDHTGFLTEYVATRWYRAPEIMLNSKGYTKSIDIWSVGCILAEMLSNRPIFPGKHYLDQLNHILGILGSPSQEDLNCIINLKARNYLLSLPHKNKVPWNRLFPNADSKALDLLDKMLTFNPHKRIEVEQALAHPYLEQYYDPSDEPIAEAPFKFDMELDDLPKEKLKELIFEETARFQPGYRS

binding result [1]: binds
B1: MKK4 D-motif peptide wt (wild-type) (peptide)
peptide: Biotin-C(diazirine‑based cleavable photocrosslinker)QGKRKALKLNFANW
modifications: reading uncertain

binding result (ERK2): binds
binding result [2]: binds
B2: MKK4 D-motif peptide I (peptide)
peptide: Biotin-C(diazirine‑based cleavable photocrosslinker)GKRKALKLNFANW
modifications: reading uncertain

binding result (ERK2): binds
binding result [2]: binds
B3: MKK4 D-motif peptide II (peptide)
peptide: Biotin-C(diazirine‑based cleavable photocrosslinker)KRKALKLNFANW
modifications: reading uncertain
